For test [1], the target named is F protein on infectious RSV strain A2 (human respiratory syncytial virus …, UniProt P03420 26-574). Nature of the test: cell-based or functional assay.
Target sequence in this assay (P03420 26-574): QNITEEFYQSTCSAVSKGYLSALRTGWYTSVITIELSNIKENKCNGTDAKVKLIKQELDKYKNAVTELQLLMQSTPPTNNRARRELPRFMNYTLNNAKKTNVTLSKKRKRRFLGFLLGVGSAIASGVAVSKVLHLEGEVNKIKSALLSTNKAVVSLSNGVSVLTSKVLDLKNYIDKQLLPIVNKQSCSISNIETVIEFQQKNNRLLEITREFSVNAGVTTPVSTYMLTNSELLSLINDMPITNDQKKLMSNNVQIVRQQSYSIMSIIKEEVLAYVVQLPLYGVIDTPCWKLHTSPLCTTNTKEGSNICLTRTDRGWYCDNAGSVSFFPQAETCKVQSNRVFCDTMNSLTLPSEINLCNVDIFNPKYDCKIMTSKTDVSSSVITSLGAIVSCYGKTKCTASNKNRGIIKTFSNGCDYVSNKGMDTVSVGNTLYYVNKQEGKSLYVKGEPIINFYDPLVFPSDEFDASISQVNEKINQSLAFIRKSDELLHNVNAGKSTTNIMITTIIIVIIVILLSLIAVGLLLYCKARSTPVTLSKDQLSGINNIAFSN
Test [2] shares this target. As to the kind of experiment: cell-based or functional assay. This is another data set of the same source.
Target sequence in this assay (P03420 26-574): as above
Test [3] concerns the target T1, recombinant post-fusion RSV strain A2 F protein (human respiratory syncytial virus …, UniProt P03420 26-109; P03420 147-513).
T1 construct: Viral fusion glycoprotein, trimer of protomers (each cleaved into two disulfide-linked fragments); also called RSV A2; post-fusion RSV A2 F
As to the kind of experiment: ELISA on coated antigen.

Test [4] deals with T2, post-fusion F protein from RSV strain 18537 B (human respiratory syncytial virus …, UniProt P13843 26-109; P13843 147-513).
T2 construct: also called RSV 18537 B; RSV 18537 B post-fusion F
T2 sequence (P13843 26-109, chain 1 of 2): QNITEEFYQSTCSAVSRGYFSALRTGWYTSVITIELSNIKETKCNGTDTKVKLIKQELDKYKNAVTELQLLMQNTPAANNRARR
T2 sequence (P13843 147-513, chain 2 of 2): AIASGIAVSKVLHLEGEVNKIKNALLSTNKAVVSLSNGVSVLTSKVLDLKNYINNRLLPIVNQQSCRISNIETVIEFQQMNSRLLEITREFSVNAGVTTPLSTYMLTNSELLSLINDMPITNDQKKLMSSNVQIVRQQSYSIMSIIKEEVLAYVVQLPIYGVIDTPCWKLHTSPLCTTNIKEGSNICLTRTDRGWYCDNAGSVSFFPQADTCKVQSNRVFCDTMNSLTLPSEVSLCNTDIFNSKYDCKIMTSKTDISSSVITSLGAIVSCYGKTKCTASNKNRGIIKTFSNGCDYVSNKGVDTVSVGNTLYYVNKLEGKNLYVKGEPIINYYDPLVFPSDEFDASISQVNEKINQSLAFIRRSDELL
Nature of the test: ELISA on coated antigen.

T1 sequence (P03420 147-513, one chain of several): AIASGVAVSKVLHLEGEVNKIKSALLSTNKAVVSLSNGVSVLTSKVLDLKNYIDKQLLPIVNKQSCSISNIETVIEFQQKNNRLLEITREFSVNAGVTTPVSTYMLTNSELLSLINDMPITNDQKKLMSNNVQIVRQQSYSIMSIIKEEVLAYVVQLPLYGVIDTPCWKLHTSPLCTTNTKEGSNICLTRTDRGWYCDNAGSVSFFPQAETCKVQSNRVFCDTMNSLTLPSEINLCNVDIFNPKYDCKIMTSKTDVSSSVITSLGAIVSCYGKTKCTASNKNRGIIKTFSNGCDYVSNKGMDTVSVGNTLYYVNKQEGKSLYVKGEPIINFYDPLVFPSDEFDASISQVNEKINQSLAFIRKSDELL

B1: mAb D25 (antibody, V domains shown)
VH: QVQLVQSGAEVKKPGSSVMVSCQASGGPLRNYIINWLRQAPGQGPEWMGGIIPVLGTVHYAPKFQGRVTITADESTDTAYIHLISLRSEDTAMYYCATETALVVSTTYLPHYFDNWGQGTLVTVSS
VL: DIQMTQSPSSLSAAVGDRVTITCQASQDIVNYLNWYQQKPGKAPKLLIYVASNLETGVPSRFSGSGSGTDFSLTISSLQPEDVATYYCQQYDNLPLTFGGGTKVEIKR
B1: the “Neutralization (IC50; ng/mL) RSV A2, plaque-reduction assay” value (“Neutralization … plaque-reduction assay” for short) in test [1] turned out to be 21 ng/mL.

B2: mAb 3J20 (antibody, V domains shown)
VH: EVQLVESGGGLVQPGGSLRLSCAASGFTFSSFTMNWVRQAPGKGLQWVSTISGSGGLTYYADSVKGRFTISRDNSKNTLSLQMNSLRAEDTAVYYCARDLEFTVTSYGGYYFEYWGQGTLVTVSS
VL: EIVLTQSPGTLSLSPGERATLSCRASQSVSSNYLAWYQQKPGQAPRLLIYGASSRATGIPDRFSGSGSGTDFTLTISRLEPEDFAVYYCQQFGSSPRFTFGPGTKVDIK
As to B2, the “Neutralization … plaque-reduction assay” value in test [2] was determined as 377 ng/mL. The figures for the EC50 in test [3] and in test [4] were 0.084 µg/mL and 0.05 µg/mL, respectively.

B3: mAb 14C16 (antibody, V domains shown)
VH: QVQLGESGPALVKPTQTLTLTCTFSGFSLSTSEMCVSWIRQPPGKALEWLALIDWDGDKFFSTSLQSRLTISKSPSNNQVVLTMTNMDPVDSGTYFCARSTVRRSSGYYYYVLDVWGQGTLVTVSS
VL: QIVMTQSPSSLSASVGDRVTISCRASQSIGTYVNWYQHKPGKAPKVLISGASNLHSGVPSRFSGSGSGTDFTLTISSLQPEDFATYYCQQSYSPLTFGGGTTVEMK
With B3, the “Neutralization … plaque-reduction assay” value in test [2] is over 100000 ng/mL. The results for the EC50 in test [3] and in test [4] were 0.019 µg/mL and 0.02 µg/mL, respectively.

B4: mAb 14N4 (antibody, V domains shown)
VH: QVQLVESGGGLIQPGGSLRLSCAVSGFTVSSKYMTWVRQAPGKGLEWVSVIYGGGSTYYADSVVGRFTISRDNSKNTLYLQMNSLRAEDTAVYYCASRLGVRATTGDLDYWGQGTLVTVSS
VL: QIVMTQSPSTLSASVGDRVTITCRASQSISSWLAWYQQKPGKAPKLLIYDASSLESGVPSRFSGSGSGTEFTLTISSLQPDDFATYYCQQYNTYSWWTFGQGTKVEIK
As for B4, the “Neutralization … plaque-reduction assay” value in test [2] turned out to be 695 ng/mL. The EC50 (as a rule, the concentration that produces a half-maximal response) amounted to 0.078 µg/mL in test [3] and 0.057 µg/mL in test [4].

B5: mAb 9J5 (antibody, V domains shown)
VH: QVQLVQSGAEVKKPGSSVTVSCKASGGSFTNYAFSWVRQAPGQGLEWMGGIIPLLNMPNYAQKFRGRVTISADQSTTTAYMELSRLTSEDTAIYFCARGGQVGDFIVLRHFDSWGQGTLVTVSS
VL: TLSCRASESVSNYLAWYQQKPGQTPRLLIYGASTRATGIPARFSGSGSGSEFTLTISSLQSEDFAVYYCQQYNDWPRFSFGQGTKLEIK
As for B5, the “Neutralization … plaque-reduction assay” value in test [2] is over 100000 ng/mL. Further, the EC50 came out at 0.03 µg/mL in test [3] and 0.04 µg/mL in test [4].

B6: mAb 4B6 (antibody, V domains shown)
VH: QVQLVQSGGGLAQPGRSLRLSCRASGFTFGDFNMNWFRQAPGKGLEWVGFIRRKAFGGATEYAASVKGRLTISRDDSKSIAYLQMNSLKTEDTAVYYCTRERGYVGSGGPFFDYWGQGTLVTVSS
VL: QAVVTQPPSVSGAPGQRVTISCTGSSSNIGAGYDVHWYQQLPGTAPKLLIYGDSNRPSGVPDRFSGSSSGTSASLAITGLQAEDEADYYCQSYDNSLSGSVFGTGTKVTVL
With B6, the “Neutralization … plaque-reduction assay” value in test [2] was over 100000 ng/mL. The EC50 in test [3] and in test [4] was 0.024 µg/mL each time.

B7: motavizumab (antibody, V domains shown)
VH: QVTLRESGPALVKPTQTLTLTCTFSGFSLSTAGMSVGWIRQPPGKALEWLADIWWDDKKHYNPSLKDRLTISKDTSKNQVVLKVTNMDPADTATYYCARDMIFNFYFDVWGQGTTVTVSS
VL: DIQMTQSPSTLSASVGDRVTITCSASSRVGYMHWYQQKPGKAPKLLIYDTSKLASGVPSRFSGSGSGTEFTLTISSLQPDDFATYYCFQGSGYPFTFGGGTKVEIK
Regarding B7, in test [1], the “Neutralization … plaque-reduction assay” value amounted to 123 ng/mL. Also, the results for the EC50 in test [3] and in test [4] were 0.03 µg/mL and 0.035 µg/mL, respectively.

B8: mAb 13A8 (antibody, V domains shown)
VH: QVQLVESGGGVVQPGKSLRLSCAASGYIFSSYDMHWVRQAPGKGLEWVAVISFDGTTQHYADSVRGRFTVSRDNSQNTVFLQMNSLRPEDTAVYYCVKEYVIVSTFFDYWGQGTLVTVSS
VL: DIVMTQSPSSLSASVGDRVTITCRASQGIRNALGWYQHKPGKAPKVLIYAASRLQSGVPSRFSGSGSGTDFTLTISSLQPEDFATYYCLQDFNYPWTFGHGTKVEIK
B8: in test [2], the “Neutralization … plaque-reduction assay” value is 55 ng/mL. In addition, the figures for the EC50 in test [3] and in test [4] were 0.082 µg/mL and 0.064 µg/mL, respectively.

B9: mAb 10F13 (antibody, V domains shown)
VH: QVQLVQSGGGVVQPGRSLRLSCAASGFPFRIYSMHWVRQAPGKGLEWVALISYDGTNKQYADSVNGRFTISRDNSENTMYLQMNSLRPEDTAIYYCATDIVELVTATDYWGQGTLVTVSS
VL: AVVTQSPGTLSLSPGDRATLSCRASQSVSTSLGWYQQKPGQSPRLLIYGTSRRATGVPDRFSGSGSETDFTLTISRLEPEDFSVYYCQQYGSSPYTFGQGTRLEIK
notes: The printed light chain has an unusual N-terminal part
For B9, the EC50 in test [3] is 0.017 µg/mL; in test [4] it was 0.021 µg/mL.

B10: mAb 12I1 (antibody, V domains shown)
VH: QVQLVQSGGGVVQPGQSLRLSCAASGFSFSDYPIHWVRQAPGKGLEWVAGISYYGSNKFYADSVRGRFTISRDTSKNTFNLQMNSLKSEDTAVYYCARDGNPPRFLEYFDYWGQGTLVTVSS
VL: QPVVTQPRSVSGSPGQSVTISCTGSSSDVGGYNFVSWYRHHPGKAPKLLIYHVTKRPSGVPDRFSGSKSGNTASLTISGLQAEDEADYYCCSYAGSYTYVLFGGGTKLTVL
notes: Non-neutralizing, antigenic site VII
On to B10, for which the “Neutralization … plaque-reduction assay” value in test [2] is over 100000 ng/mL. The EC50 was 0.026 µg/mL in test [3] and 0.033 µg/mL in test [4].

Values taken from patent publication US20190240316A1 (VANDERBILT UNIVERSITY, published 2019).
